# Assay results published in publication PMC9818519.
# Molecular target: His-HAT1 (Homo sapiens) (UniProt O14929)
# Experiment: ELONA
# Details: ELONA: PBS + 1 mM MgCl2 (selection buffer), 37 °C, 1 h; 100 ng HAT1/well adsorbed; 0.2% BSA block; aptamers heated 95 °C 10 min then ice 10 min
# Sequence of UniProt O14929 (O14929 whole entry): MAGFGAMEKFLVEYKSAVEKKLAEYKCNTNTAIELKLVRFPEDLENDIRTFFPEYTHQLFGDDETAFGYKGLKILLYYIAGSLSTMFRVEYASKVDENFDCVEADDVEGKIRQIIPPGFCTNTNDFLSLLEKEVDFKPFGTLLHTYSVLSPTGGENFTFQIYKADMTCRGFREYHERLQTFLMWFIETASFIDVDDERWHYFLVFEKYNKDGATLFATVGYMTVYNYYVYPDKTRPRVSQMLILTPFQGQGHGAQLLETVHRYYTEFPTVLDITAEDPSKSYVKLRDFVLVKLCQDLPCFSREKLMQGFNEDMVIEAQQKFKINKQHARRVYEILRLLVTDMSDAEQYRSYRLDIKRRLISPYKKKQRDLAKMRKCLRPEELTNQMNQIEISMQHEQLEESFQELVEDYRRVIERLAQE
row,Sequence,Kd [nM]
1,GTTGCTCGTATTTAGGGCGGGGGGGCGGGGGAGGAGGTGGCGGGAATATCCATTGTCTACACCAGTCTTCATCCGC [apHAT610 (610R)],28.1
2,GCGGATGAAGACTGGTGTCGAGGGGGGGGCGGGCGGGTGGGTTGGCTCTTCATGCCTGTGCCCTAAATACGAGCAAC [apHAT63 (63F)],38
3,GCGGATGAAGACTGGTGTCGAGGGGGGGGCGGGCGGGTGGGTTGGCTCTTCATGCCTGTGCCC [apHAT63T],43.7
